Measurements as given in patent US20160222130A1 (Astellas, published 2016).

Assays:
Assay in all cases: ELISA; Tie2-Fc coated at 1 ug/mL; signal at 100 ng/mL antibody vs convergence value on the parent
[1] = molecular target: T1, Human Tie2 (1-452)c1-Fc (human, UniProt Q02763 23-452)
T1 construct: range 1-452
Experimental: (§1) The next day, the immobilized solution was removed, and the plate was washed with a TBS-T solution, and incubated for 60 minutes by the addition of 50 μL of a Blocker™ Casein in TBS (Thermo Fisher Scientific Inc., 37532) to perform blocking. The resultant was washed with a TBS-T solution, and TIE-1-Igγ1-LALA, diluted with 0.05% Tween 20 (Nacalai Tesque Inc., 28353-85)—containing Blocker™ Casein in TBS from 0.03 ng/mL to 100 ng/mL through eight steps, was added thereto in the amount of 20 μL per well. The resultant was incubated at room temperature for 90 minutes and then washed with a TBS-T solution three times, and 20 μL of a biotin-labeled anti-human kappa light chain antibody, which had been diluted to 0.1 μg/mL with 0.05% Tween 20-containing Blocker™ Casein in TBS, was added thereto. The resultant was incubated at room temperature for 60 minutes and then washed with a TBS-T solution three times, and 20 μL of alkaline phosphatase-labeled streptavidin, which had been diluted to 0.1 μg/mL with 0.05% Tween 20-containing Blocker™ Casein in TBS, was added thereto. The resultant was incubated at room temperature for 60 minutes and then washed with a TBS-T solution three times, and 50 μL of Chemiluminescent Ultra Sensitive AP Microwell and/or Membrane Substrate (450 nm), which had been 5-fold diluted with 1 mM MgCl₂-containing 20 mM TBS (pH 9.8) as a substrate, was added thereto. The resultant was incubated at room temperature under light-shielding for 40 minutes, and then luminescent intensity thereof was measured with an EnVision™ multi-label counter. The EC₅₀ value of TIE-1-Igγ1-LALA with respect to the human Tie2 (1-452)-Fc chimeric protein and 23 mutant proteins thereof were calculated. The relative value of luminescent intensity of 100 ng/mL TIE-1-Igγ1-LALA as maximum concentration point with respect to human Tie2 (1-452)-Fc chimeric protein and 23 mutant proteins thereof when the convergence value of the sigmoid curve of TIE-1-Igγ1-LALA binding to the human Tie2 (1-452)-Fc chimeric protein which was taken as 100% was calculated (Table 8 and Table 9). Further, the EC₅₀ value and the convergence value were calculated by Sigmoid-Emax model non-linear regression analysis.

[2] = molecular target: T2, Human Tie2 (1-452)r7-Fc (human, UniProt Q02763 23-452)
T2 construct: range 1-452
Experimental: as §1

[3] = molecular target: T3, Human Tie2 (1-452)m3-Fc (human, UniProt Q02763 23-452)
T3 construct: range 1-452
Experimental: as §1

[4] = molecular target: T4, Human Tie2 (1-452)g3-Fc (human, UniProt Q02763 23-452)
T4 construct: range 1-452
Experimental: as §1

[5] = molecular target: T5, Human Tie2 (1-452)g1-Fc (human, UniProt Q02763 23-452)
T5 construct: range 1-452
Experimental: as §1

[6] = molecular target: T6, Human Tie2 (1-452)g4-Fc (human, UniProt Q02763 23-452)
T6 construct: range 1-452
Experimental: as §1

[7] = molecular target: T7, human Tie2 (1-452)-Fc chimeric protein (human, UniProt Q02763 23-452)
T7 construct: range 1-452; The stated range 1-452 begins at residue 1 of the precursor
Experimental: as §1

[8] = molecular target: T8, Human Tie2 (1-452)y1-Fc (human, UniProt Q02763 23-452)
T8 construct: range 1-452
Experimental: as §1

[9] = molecular target: T9, Human Tie2 (1-452)r5-Fc (human, UniProt Q02763 23-452)
T9 construct: range 1-452
Experimental: as §1

[10] = molecular target: T10, Human Tie2 (1-452)g6-Fc (human, UniProt Q02763 23-452)
T10 construct: range 1-452
Experimental: as §1

[11] = molecular target: T11, Human Tie2 (1-452)g2-Fc (human, UniProt Q02763 23-452)
T11 construct: range 1-452
Experimental: as §1

[12] = molecular target: T12, Human Tie2 (1-452)r3-Fc (human, UniProt Q02763 23-452)
T12 construct: range 1-452
Experimental: as §1

[13] = molecular target: T13, Human Tie2 (1-452)r2-Fc (human, UniProt Q02763 23-452)
T13 construct: range 1-452
Experimental: as §1

[14] = molecular target: T14, Human Tie2 (1-452)r1-Fc (human, UniProt Q02763 23-452)
T14 construct: range 1-452
Experimental: as §1

T7 sequence (Q02763 other isoform, or with tags, fused parts or gaps mutant limits assumed, form in doubt): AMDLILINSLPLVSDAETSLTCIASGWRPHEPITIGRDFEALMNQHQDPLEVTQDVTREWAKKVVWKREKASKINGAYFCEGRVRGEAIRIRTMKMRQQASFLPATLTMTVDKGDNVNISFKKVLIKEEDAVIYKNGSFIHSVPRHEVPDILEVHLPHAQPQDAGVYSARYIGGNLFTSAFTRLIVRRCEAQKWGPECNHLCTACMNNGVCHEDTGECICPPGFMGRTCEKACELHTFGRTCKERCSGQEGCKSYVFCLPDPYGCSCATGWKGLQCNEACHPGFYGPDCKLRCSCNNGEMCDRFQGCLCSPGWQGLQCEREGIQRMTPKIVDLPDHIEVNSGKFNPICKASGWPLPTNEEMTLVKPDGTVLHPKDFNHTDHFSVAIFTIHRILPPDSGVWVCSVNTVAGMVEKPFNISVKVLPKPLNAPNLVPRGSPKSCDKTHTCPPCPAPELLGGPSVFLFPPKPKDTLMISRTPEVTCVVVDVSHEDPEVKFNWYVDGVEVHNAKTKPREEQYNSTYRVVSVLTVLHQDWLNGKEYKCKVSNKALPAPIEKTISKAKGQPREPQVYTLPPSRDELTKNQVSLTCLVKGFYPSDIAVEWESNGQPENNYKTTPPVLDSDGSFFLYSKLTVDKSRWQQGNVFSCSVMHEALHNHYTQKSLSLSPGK
T10 sequence (Q02763 other isoform, or with tags, fused parts or gaps limits assumed, form in doubt): as the sequence (Q02763 other isoform, or with tags, fused parts or gaps mutant limits assumed, form in doubt) above, with L176A counted along it
T1 sequence (Q02763 other isoform, or with tags, fused parts or gaps limits assumed, form in doubt): as the sequence (Q02763 other isoform, or with tags, fused parts or gaps mutant limits assumed, form in doubt) above, with R28A, H30A, E31A, P32A counted along it
T9 sequence (Q02763 other isoform, or with tags, fused parts or gaps limits assumed, form in doubt): as the sequence (Q02763 other isoform, or with tags, fused parts or gaps mutant limits assumed, form in doubt) above, with E147A counted along it
T2 sequence (Q02763 other isoform, or with tags, fused parts or gaps limits assumed, form in doubt): as the sequence (Q02763 other isoform, or with tags, fused parts or gaps mutant limits assumed, form in doubt) above, with I151A counted along it
T4 sequence (Q02763 other isoform, or with tags, fused parts or gaps limits assumed, form in doubt): as the sequence (Q02763 other isoform, or with tags, fused parts or gaps mutant limits assumed, form in doubt) above, with I172A counted along it
T11 sequence (Q02763 other isoform, or with tags, fused parts or gaps limits assumed, form in doubt): as the sequence (Q02763 other isoform, or with tags, fused parts or gaps mutant limits assumed, form in doubt) above, with R170A counted along it
T5 sequence (Q02763 other isoform, or with tags, fused parts or gaps limits assumed, form in doubt): as the sequence (Q02763 other isoform, or with tags, fused parts or gaps mutant limits assumed, form in doubt) above, with I172A, N175A, L176A counted along it
T12 sequence (Q02763 other isoform, or with tags, fused parts or gaps limits assumed, form in doubt): as the sequence (Q02763 other isoform, or with tags, fused parts or gaps mutant limits assumed, form in doubt) above, with R145A counted along it
T14 sequence (Q02763 other isoform, or with tags, fused parts or gaps limits assumed, form in doubt): as the sequence (Q02763 other isoform, or with tags, fused parts or gaps mutant limits assumed, form in doubt) above, with R145A, H146A, E147A counted along it
T8 sequence (Q02763 other isoform, or with tags, fused parts or gaps limits assumed, form in doubt): as the sequence (Q02763 other isoform, or with tags, fused parts or gaps mutant limits assumed, form in doubt) above, with D15A counted along it
T6 sequence (Q02763 other isoform, or with tags, fused parts or gaps limits assumed, form in doubt): as the sequence (Q02763 other isoform, or with tags, fused parts or gaps mutant limits assumed, form in doubt) above, with G173E counted along it
T13 sequence (Q02763 other isoform, or with tags, fused parts or gaps limits assumed, form in doubt): as the sequence (Q02763 other isoform, or with tags, fused parts or gaps mutant limits assumed, form in doubt) above, with D150A, I151A counted along it
T3 sequence (Q02763 other isoform, or with tags, fused parts or gaps limits assumed, form in doubt): as the sequence (Q02763 other isoform, or with tags, fused parts or gaps mutant limits assumed, form in doubt) above, with S72A, K73A counted along it

B1: TIE-1-Igγ1-LALA (antibody, human IgG1, kappa, L234A L235A)
heavy: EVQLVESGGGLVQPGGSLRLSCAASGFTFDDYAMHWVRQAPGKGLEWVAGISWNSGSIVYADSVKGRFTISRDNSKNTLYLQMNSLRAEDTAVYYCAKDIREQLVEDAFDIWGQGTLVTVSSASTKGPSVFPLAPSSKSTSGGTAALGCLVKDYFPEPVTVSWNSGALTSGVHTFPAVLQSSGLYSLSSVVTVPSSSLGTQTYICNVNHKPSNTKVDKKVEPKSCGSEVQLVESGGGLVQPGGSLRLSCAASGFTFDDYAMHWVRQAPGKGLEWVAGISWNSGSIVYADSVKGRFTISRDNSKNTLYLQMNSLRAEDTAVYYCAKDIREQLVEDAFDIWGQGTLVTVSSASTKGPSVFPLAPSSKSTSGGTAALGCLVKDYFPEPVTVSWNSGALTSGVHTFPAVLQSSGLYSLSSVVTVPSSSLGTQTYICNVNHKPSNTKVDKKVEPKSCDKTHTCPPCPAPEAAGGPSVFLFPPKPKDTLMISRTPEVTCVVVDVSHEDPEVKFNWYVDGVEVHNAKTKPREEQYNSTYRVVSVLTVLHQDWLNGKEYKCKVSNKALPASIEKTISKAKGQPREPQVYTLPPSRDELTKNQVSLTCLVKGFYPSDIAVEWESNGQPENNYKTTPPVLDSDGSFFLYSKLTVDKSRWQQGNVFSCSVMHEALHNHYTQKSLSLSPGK
light: DIQMTQSPSSLSASVGDRVTITCRSSQSLLHSHRYNYLDWYQQKPGKAPKLLIYLGSNRASGVPSRFSGSGSGTDFTLTISSVQPEDFATYYCMQTLQTPLTFGQGTKVEIKRTVAAPSVFIFPPSDEQLKSGTASVVCLLNNFYPREAKVQWKVDNALQSGNSQESVTEQDSKDSTYSLSSTLTLSKADYEKHKVYACEVTHQGLSSPVTKSFNRGEC
notes: Tandem tetravalent format: two heavy chains (VH-CH1-linker-VH-CH1-CH2-CH3) and four light chains; also called tetravalent anti-human Tie2 antibody with L234A, L235A and P331S
- Relative value (%) of luminescent intensity [1]: 104%
- Relative value (%) of luminescent intensity [2]: 100%
- Relative value (%) of luminescent intensity [3]: 103%
- Relative value (%) of luminescent intensity [4]: 96%
- Relative value (%) of luminescent intensity [5]: 3%
- Relative value (%) of luminescent intensity [6]: 53%
- Relative value (%) of luminescent intensity [7]: 97%
- Relative value (%) of luminescent intensity [8]: 109%
- Relative value (%) of luminescent intensity [9]: 102%
- Relative value (%) of luminescent intensity [10]: 105%
- Relative value (%) of luminescent intensity [11]: 72%
- Relative value (%) of luminescent intensity [12]: 102%
- Relative value (%) of luminescent intensity [13]: 96%
- Relative value (%) of luminescent intensity [14]: 97%
